This experiment deals with T1, human Nectin-4 extracellular antigen hNectin-4-His (human, UniProt Q96NY8 32-349).
T1 construct: C-terminal 8xHis tag included
T1 sequence: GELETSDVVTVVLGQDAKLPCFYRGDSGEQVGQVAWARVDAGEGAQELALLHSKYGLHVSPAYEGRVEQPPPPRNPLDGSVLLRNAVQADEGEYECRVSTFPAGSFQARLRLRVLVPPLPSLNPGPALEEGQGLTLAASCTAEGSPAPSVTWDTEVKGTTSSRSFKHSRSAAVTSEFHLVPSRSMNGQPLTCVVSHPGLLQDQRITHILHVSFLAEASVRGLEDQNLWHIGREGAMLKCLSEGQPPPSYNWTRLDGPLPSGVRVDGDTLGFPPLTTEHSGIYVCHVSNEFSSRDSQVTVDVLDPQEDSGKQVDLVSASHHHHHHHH
As to the kind of experiment: ELISA, phage scFv supernatant 1:50.

Positions count from the first letter of the chain named.

B1: 1G8-2F2 scFv (scFv, V domains shown)
VH: EVQLVESGGGLVQPGGSLRLSCAASGDIFGSYAMSWVRQAPGKGLEWVSRISSHGASRDYADSVKGRFTISRDNSKNTLYLQMNSLRAEDTAVYYCARQTEDRSYGYDLDYWGQGTLVTVSS
VL: DIQMTQSPSSLSASVGDRVTITCRASQGISSYLAWYQQKPGKAPKLLIYAASSLQSGVPSRFSGSGSGTDFTLTISSLQPEDFATYYCQQHYTTPPTFGQGTKVEIKR
notes: phage clone supernatant
In turn, B1 registered an OD value of 1.6 OD.

B2: 1G8-1F5 scFv (scFv, V domains shown)
VH: EVQLVESGGGLVQPGGSLRLSCAASGDIFDTYMSWVRQAPGKGLEWVSRIYTDGSSDYADSVKGRFTISRDNSKNTLYLQMNSLRAEDTAVYYCARQTEDRSYGYDLDYWGQGTLVTVSS
VL: B1 VL
notes: phage clone supernatant
B2 came in with an OD value of 1.56 OD.

B3: 1G8-2G12 scFv (scFv, V domains shown)
VH: EVQLVESGGGLVQPGGSLRLSCAASGFTFSNNAMSWVRQAPGKGLEWVSAIYASTDGRSYADSVKGRFTISRDNSKNTLYLQMNSLRAEDTAVYYCARQTEDRSYGYDLDYWGQGTLVTVSS
VL: B1 VL
notes: phage clone supernatant
For B3, the OD value came to 1.5 OD.

B4: 10F4-2A9 scFv (scFv, V domains shown)
VH: EVQLVESGGGLVQPGGSLRLSCAASGYTFTDYDMSWVRQAPGKGLEWVSGIKQYKGYTSYADSVKGRFTISRDNSKNTLYLQMNSLRAEDTAVYYCAREYSDVVDYVSVRTPLDYWGQGTLVTVSS
VL: B1 VL
notes: phage clone supernatant
The molecule B4 gave an OD value of 1.57 OD.

B5: 1G8-2B12 scFv (scFv, V domains shown)
VH: EVQLVESGGGLVQPGGSLRLSCAASGDTFGTSSMSWVRQAPGKGLEWVSRIDTWGWYKFYADSVKGRFTISRDNSKNTLYLQMNSLRAEDTAVYYCARQTEDRSYGYDLDYWGQGTLVTVSS
VL: B1 VL
notes: phage clone supernatant
Take B5: the OD value was found to be 1.39 OD.

B6: 1G8-2G8 scFv (scFv, V domains shown)
VH: B1 VH with D27F, I28N, G30T, S31N, S53T, H54Y, A56D, S57T, R58T, D59H
VL: B1 VL
notes: phage clone supernatant
B6 came in with an OD value of 1.58 OD.

B7: 1G8-2F9 scFv (scFv, V domains shown)
VH: B1 VH with D27Y, I28S, G30S, S31N, S53A, H54W, A56S, S57T, R58N, D59N
VL: B1 VL
notes: phage clone supernatant
On to B7, for which the OD value was determined as 1.56 OD.

B8: 1G8-2F11 scFv (scFv, V domains shown)
VH: B1 VH with D27Y, I28T, Y32N, S53P, H54D, G55S, A56S, S57G, R58I, D59S
VL: B1 VL
notes: phage clone supernatant
Regarding B8, the OD value came out at 1.57 OD.

B9: 10F4-1D3 scFv (scFv, V domains shown)
VH: EVQLVESGGGLVQPGGSLRLSCAASGFSFYDYDMSWVRQAPGKGLEWVSSIIQSGSTAFYADSVKGRFTISRDNSKNTLYLQMNSLRAEDTAVYYCAREYSDVVDYVSVRTPLDYWGQGTLVTVSS
VL: B1 VL
notes: phage clone supernatant
B9 gave an OD value of 1.52 OD.

B10: 1G8-2H11 scFv (scFv, V domains shown)
VH: B3 VH with T28N, S30D, N32Y, A50R, A53G, S54W, T55D, D56W, G57Y, R58A
VL: B1 VL
notes: phage clone supernatant
Molecule B10 had an OD value of 1.35 OD.

B11: 10F4-1 scFv (scFv, V domains shown)
VH: B9 VH with F27D, Y30T, D31N, D33W, S50G, I52S, S54G, T57Y, F59Y
VL: B1 VL
notes: phage clone supernatant
Molecule B11 gave an OD value of 1.39 OD.

B12: 10F4-1F8 scFv (scFv, V domains shown)
VH: B9 VH with F27Y, S28T, Y30T, Q53T, S54D, S56G, T57G
VL: B1 VL
notes: phage clone supernatant
B12 showed an OD value of 1.49 OD.

B13: 10F4-1A3 scFv (scFv, V domains shown)
VH: B4 VH with T28S, T30S, D31N, Q53G, Y54W, G56S, S59G
VL: B1 VL
notes: phage clone supernatant
In turn, B13 returned an OD value of 1.53 OD.

B14: 10F4-1B7 scFv (scFv, V domains shown)
VH: B9 VH with S28N, Y30S, D31G, Y32F, S50G, I52K, Q53A, S54Y, G55K, F59D
VL: B1 VL
notes: phage clone supernatant
Molecule B14 gave an OD value of 1.6 OD.

B15: 10F4-1F2 scFv (scFv, V domains shown)
VH: EVQLVESGGGLVQPGGSLRLSCAASGYNFTNYYMSWVRQAPGKGLEWVSSISAYSDNRNYADSVKGRFTISRDNSKNTLYLQMNSLRAEDTAVYYCAREYSDVVDYVSVRTPLDYWGQGTLVTVSS
VL: B1 VL
notes: phage clone supernatant
Regarding B15, the OD value worked out at 1.4 OD.

B16: 10F4-1A1 scFv (scFv, V domains shown)
VH: B9 VH with Y30D, D31N, I52K, Q53P, S54G, G55S, S56A, T57Y, A58K
VL: B1 VL
notes: phage clone supernatant
B16 registered an OD value of 1.69 OD.

B17: 10F4-1C10 scFv (scFv, V domains shown)
VH: B4 VH with T28N, T30G, D31S, Q53T, K55G, Y57N, S59H
VL: B1 VL
notes: phage clone supernatant
Molecule B17 displayed an OD value of 1.52 OD.

B18: 10F4-1E12 scFv (scFv, V domains shown)
VH: B15 VH with T30S, N31S, Y33D, S50G, A53D, Y54T, S55G, N57Y, R58A
VL: B1 VL
notes: phage clone supernatant
B18: the OD value was 1.52 OD.

B19: 1G8-2G4 scFv (scFv, V domains shown)
VH: B5 VH with D27F, T31G, S32Y, D52S, W54D, W56A, K58T, F59N
VL: B1 VL
notes: phage clone supernatant
Regarding B19, the OD value came out at 1.58 OD.

B20: 1G8-2H8 scFv (scFv, V domains shown)
VH: B1 VH with R50A, S53G, H54S, A56G, R58T, D59Y
VL: B1 VL
notes: phage clone supernatant
B20 returned an OD value of 1.57 OD.

B21: 10F4-1C3 scFv (scFv, V domains shown)
VH: B9 VH with F27Y, Y30S, D33W, I52K, S54T, S56G, T57V, A58K, F59H
VL: B1 VL
notes: phage clone supernatant
In turn, B21 had an OD value of 1.59 OD.

B22: 1G8-2H9 scFv (scFv, V domains shown)
VH: B3 VH with T28N, S30G, N32Y, A53S, S54Y, T55F, G57E, R58P, S59R
VL: B1 VL
notes: phage clone supernatant
As to B22, the OD value came out at 1.46 OD.

B23: 1G8-2H1 scFv (scFv, V domains shown)
VH: B1 VH with D27Y, I28S, G30Y, S53Q, H54G, A56G, S57V, R58T, D59H
VL: B1 VL
notes: phage clone supernatant
In turn, B23 showed an OD value of 1.58 OD.

B24: 10F4-1B5 scFv (scFv, V domains shown)
VH: B9 VH with S28N, Y30T, D33W, Q53G, S54D, G55D, A58N, F59H
VL: B1 VL
notes: phage clone supernatant
Consider B24, for which the OD value was found to be 1.53 OD.

B25: 10F4-1E10 scFv (scFv, V domains shown)
VH: B4 VH with Y27D, T30D, D31T, D33A, K52S, Y54W, K55G, G56A, T58A
VL: B1 VL
notes: phage clone supernatant
Take B25: the OD value came out at 1.29 OD.

B26: 1G8-2H3 scFv (scFv, V domains shown)
VH: B1 VH with D27Y, I28S, S31G, S53G, H54I, G55K, S57Y, R58N
VL: B1 VL
notes: phage clone supernatant
B26 showed an OD value of 1.53 OD.

B27: 1G8-2G9 scFv (scFv, V domains shown)
VH: B1 VH with D27Y, G30T, S31N, S53Q, H54S, A56G, S57T, R58N
VL: B1 VL
notes: phage clone supernatant
Turning to B27, the OD value turned out to be 1.54 OD.

B28: 1G8-2H4 scFv (scFv, V domains shown)
VH: B1 VH with I28S, G30T, S31G, R50A, S53G, H54S, A56G, R58T, D59Y
VL: B1 VL
notes: phage clone supernatant
B28: the OD value was 1.58 OD.

B29: 10F4-1B2 scFv (scFv, V domains shown)
VH: B9 VH with Y30G, D31N, D33W, S50G, I52D, Q53G, S54H, G55S, T57Y
VL: B1 VL
notes: phage clone supernatant
The molecule B29 yielded an OD value of 1.64 OD.

B30: 1G8-2H10 scFv (scFv, V domains shown)
VH: EVQLVESGGGLVQPGGSLRLSCAASGYNFTNSAMSWVRQAPGKGLEWVSSIYYHSGVPRYADSVKGRFTISRDNSKNTLYLQMNSLRAEDTAVYYCARQTEDRSYGYDLDYWGQGTLVTVSS
VL: B1 VL
notes: phage clone supernatant
Turning to B30, the OD value amounted to 1.53 OD.

B31: 1G8-2G7 scFv (scFv, V domains shown)
VH: B1 VH with D27G, I28T, G30Y, S31T, S52Y, H54T, G55K, A56G, S57T, R58P
VL: B1 VL
notes: phage clone supernatant
In turn, B31 came in with an OD value of 1.49 OD.

B32: 10F4-1D11 scFv (scFv, V domains shown)
VH: B9 VH with S28I, Y30S, Y32F, S50G, I52K, G55S, S56A, T57G, A58I, F59N
VL: B1 VL
notes: phage clone supernatant
The molecule B32 gave an OD value of 1.46 OD.

B33: 1G8-2G3 scFv (scFv, V domains shown)
VH: B1 VH with D27F, S31G, Y32N, H54D, G55K, A56G, S57T, R58T, D59N
VL: B1 VL
notes: phage clone supernatant
In turn, B33 gave an OD value of 1.58 OD.

B34: 10F4-1C4 scFv (scFv, V domains shown)
VH: B9 VH with S28N, Y30T, D33W, Q53G, S54D, G55D, A58N, F59H
VL: B1 VL
notes: phage clone supernatant
For B34, the OD value was found to be 1.46 OD.

The values above are taken from patent US20260144882A1 (BIO THERA SOLUTIONS, published 2026).
